Source: article PMC7489914, “Structural and functional studies of Arabidopsis thaliana legumain beta reveal isoform specific mechanisms of activation and substrate recognition” (The Journal of Biological Chemistry, 2020)

Biological target: T1, AtLEGβ catalytic AEP domain (up to the autocatalytic cleavage site Asn333) (Arabidopsis thaliana, UniProt Q39044 22-333)
T1 construct: Arabidopsis thaliana legumain isoform β, catalytic (AEP) domain up to the autocatalytic cleavage site Asn333; Removal of the His6 tag (cleavage within the TEV site) was only observed under very acidic pH conditions; also called catalytic domain; AEPβ
T1 sequence (looked up): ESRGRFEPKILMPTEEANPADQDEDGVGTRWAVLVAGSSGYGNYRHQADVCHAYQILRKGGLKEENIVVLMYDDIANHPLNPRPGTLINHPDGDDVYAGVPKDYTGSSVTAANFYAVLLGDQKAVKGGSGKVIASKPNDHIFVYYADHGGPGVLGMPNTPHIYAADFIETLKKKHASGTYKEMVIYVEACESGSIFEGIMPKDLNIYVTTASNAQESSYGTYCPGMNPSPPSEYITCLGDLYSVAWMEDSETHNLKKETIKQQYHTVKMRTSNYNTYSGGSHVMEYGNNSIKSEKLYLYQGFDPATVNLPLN
Experiment: SEC; pH 5.0-activated AtLEGβ on an S200 column, 20 mM citric acid pH 5.0, 100 mM NaCl; BSA as size standard
Settings: both partners purified

binding result: binds
B1: AtLEGβ AP-LSAM C-terminal fragment (Gln346–Ala486) (domain or fragment, Arabidopsis thaliana, UniProt Q39044 346-486, looked up)
chain: QRDADLLFLWHMYRTSEDGSRKKDDTLKELTETTRHRKHLDASVELIATILFGPTMNVLNLVREPGLPLVDDWECLKSMVRVFEEHCGSLTQYGMKHMRAFANVCNNGVSKELMEEASTAACGGYSEARYTVHPSILGYSA
notes: also called LSAM domain
